Test results as given in patent US20240325557A1 (INNATE PHARMA, published 2024).

How the values were obtained:
[1] = molecular target: T1, human Nectin 1 on CHO cells (human, UniProt Q15223 31-517); assay: flow cytometry on CHO cells expressing human Nectin 1
T1 sequence: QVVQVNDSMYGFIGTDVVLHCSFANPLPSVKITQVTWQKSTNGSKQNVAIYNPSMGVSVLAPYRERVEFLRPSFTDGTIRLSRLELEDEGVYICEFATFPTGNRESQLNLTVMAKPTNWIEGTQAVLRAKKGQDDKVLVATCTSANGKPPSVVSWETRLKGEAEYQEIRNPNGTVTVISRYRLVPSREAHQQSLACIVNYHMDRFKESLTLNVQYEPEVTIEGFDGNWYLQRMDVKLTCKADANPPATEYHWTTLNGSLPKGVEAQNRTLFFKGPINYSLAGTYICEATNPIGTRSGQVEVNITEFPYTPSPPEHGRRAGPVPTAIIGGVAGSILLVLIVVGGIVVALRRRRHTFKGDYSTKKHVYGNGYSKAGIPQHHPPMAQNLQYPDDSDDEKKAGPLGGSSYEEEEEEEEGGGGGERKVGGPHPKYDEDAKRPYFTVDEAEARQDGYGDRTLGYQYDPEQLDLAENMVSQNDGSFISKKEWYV
Description: (§1) Anti-Nectin-4 antibodies were tested by flow cytometry for binding to different CHO cell lines made to express respectively the human Nectin 1, Nectin 2, Nectin 3 and PVR proteins. The expression of each cell lines was controlled and validated with known respectively the anti-human Nectin1, anti-human Nectin2, anti-human Nectin3 and anti-human PVR antibodies. The mature amino acid sequence of the proteins expressed by the cells were as follows:
(§2) Nectin 1, Nectin 2, Nectin 3 and PVR proteins as in Example 12. […] Epitope mapping was carried out by assessing competition for binding to Nectin-4 by SPR as in Example 14.

human PVR on CHO cells = molecular target: T2, human PVR on CHO cells (human, UniProt P15151 28-417); assay: flow cytometry on CHO cells expressing human PVR
T2 construct: also called PVR (Nectin-5)
T2 sequence: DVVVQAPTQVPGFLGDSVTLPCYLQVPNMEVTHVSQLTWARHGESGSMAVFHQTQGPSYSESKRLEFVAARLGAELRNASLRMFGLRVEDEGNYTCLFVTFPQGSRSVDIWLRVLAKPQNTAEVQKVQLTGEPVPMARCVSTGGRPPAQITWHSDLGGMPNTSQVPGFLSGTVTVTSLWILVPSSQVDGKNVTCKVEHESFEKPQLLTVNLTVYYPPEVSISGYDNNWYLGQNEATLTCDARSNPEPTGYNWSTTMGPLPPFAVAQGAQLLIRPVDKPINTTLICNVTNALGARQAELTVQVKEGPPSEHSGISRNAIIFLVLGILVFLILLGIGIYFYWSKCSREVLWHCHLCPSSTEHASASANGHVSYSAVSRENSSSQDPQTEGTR
Description: as §1, §2

[2] = molecular target: T3, wild-type human Nectin-4 on the CHO huNectin4 Cl.3C8 cell line (human, UniProt Q96NY8 32-510); assay: flow cytometry on wild-type human Nectin-4 cell line
T3 construct: also called whole Nectin-4 protein; huNectin4 CI.3C8
T3 sequence: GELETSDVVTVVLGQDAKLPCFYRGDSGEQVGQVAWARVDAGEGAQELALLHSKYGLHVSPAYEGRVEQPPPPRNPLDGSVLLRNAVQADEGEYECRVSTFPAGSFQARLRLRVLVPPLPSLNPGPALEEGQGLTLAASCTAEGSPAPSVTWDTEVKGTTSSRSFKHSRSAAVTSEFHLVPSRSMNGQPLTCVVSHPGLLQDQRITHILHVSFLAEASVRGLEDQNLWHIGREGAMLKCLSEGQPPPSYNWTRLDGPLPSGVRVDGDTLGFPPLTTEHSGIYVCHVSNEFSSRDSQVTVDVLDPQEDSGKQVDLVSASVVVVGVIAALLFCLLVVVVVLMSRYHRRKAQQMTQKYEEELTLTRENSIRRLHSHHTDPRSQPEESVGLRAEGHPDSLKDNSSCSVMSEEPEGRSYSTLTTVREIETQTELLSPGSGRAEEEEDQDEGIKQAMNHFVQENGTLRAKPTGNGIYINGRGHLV

[3] = molecular target: T4, human Nectin 2 on CHO cells (human, UniProt Q92692 32-538); assay: flow cytometry on CHO cells expressing human Nectin 2
T4 sequence: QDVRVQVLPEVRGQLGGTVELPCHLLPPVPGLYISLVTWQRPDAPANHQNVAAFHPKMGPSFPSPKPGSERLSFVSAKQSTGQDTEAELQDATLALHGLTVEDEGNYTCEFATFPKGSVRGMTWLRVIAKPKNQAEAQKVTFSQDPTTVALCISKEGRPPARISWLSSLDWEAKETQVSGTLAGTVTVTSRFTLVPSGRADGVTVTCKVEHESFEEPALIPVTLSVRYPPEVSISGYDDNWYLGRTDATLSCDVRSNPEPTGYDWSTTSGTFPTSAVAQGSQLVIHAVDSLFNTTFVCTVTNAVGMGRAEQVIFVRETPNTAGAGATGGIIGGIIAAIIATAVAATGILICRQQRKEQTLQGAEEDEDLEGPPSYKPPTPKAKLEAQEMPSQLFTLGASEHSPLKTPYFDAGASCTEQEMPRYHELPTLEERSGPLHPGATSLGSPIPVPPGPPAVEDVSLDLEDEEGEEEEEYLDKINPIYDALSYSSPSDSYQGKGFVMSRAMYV
Description: as §1, §2

human Nectin-4 Mutant 3 = molecular target: T5, human Nectin-4 Mutant 3 (human, UniProt Q96NY8 32-510); assay: binding to HEK-293T cells transfected with the Nectin-4 mutant
T5 construct: Expressed on transfected HEK-293T cells; also called A76S/Q77R/E78A/S91N
T5 chain: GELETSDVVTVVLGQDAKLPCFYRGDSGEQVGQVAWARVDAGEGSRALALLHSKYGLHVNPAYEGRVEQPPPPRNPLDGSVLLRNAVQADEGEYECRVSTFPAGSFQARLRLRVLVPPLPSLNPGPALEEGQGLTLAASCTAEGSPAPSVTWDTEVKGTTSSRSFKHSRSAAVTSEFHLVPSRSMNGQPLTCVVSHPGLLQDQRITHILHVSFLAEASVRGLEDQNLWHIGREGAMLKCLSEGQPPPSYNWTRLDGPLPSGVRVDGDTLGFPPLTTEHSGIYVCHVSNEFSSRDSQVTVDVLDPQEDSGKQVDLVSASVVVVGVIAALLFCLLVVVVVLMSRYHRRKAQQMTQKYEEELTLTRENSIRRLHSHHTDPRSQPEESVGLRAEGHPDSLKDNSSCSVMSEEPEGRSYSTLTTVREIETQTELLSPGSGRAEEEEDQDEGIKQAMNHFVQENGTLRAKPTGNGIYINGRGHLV

[4] = molecular target: T6, huNectin4-C1C2-V5 (C1C2 construct, lacking the Ig-like V domain) (human, UniProt Q96NY8 148-510); assay: flow cytometry on Nectin4-C1C2-V5 sorted cells
T6 construct: Expressed on CHO cells; also called Hu-Nectin4 IgC1C2-V5; Nectin4-C1C2-V5 sorted cells
T6 sequence: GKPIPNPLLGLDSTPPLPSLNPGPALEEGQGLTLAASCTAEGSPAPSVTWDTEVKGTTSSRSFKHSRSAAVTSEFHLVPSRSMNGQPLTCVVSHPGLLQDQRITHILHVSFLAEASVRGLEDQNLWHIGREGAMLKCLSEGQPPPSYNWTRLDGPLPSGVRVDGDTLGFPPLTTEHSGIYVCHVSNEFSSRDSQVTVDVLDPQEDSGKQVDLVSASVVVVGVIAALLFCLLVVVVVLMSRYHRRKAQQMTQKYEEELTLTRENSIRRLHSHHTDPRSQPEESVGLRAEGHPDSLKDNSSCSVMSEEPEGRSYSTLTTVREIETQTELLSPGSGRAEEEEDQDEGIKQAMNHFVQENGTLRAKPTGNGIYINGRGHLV

[5] = molecular target: T6, huNectin4-C1C2-V5 (C1C2 construct, …); assay: flow cytometry on huNectin4-C1C2-V5 CHO cells
Description: The characterization of the binding of the antibodies on Nectin-4 domains was performed by flow cytometry using cells made to express the wild-type human Nectin-4 protein and cells made to express a modified Nectin-4 having the Ig-like C₂ type 1 and the Ig-like C₂ type 2 domains and lacking the Ig-like V domain (the C1C2 construct). The latter protein additionally bears a V5 tag for flow cytometry cell sorting, and cells were used as Nectin4-C1C2-V5 sorted cells.

human Nectin-4 Mutant 1 = molecular target: T7, human Nectin-4 Mutant 1 (human, UniProt Q96NY8 32-510); assay: binding to HEK-293T cells transfected with the Nectin-4 mutant
T7 construct: Expressed on transfected HEK-293T cells; also called S58P/G59D/Q61A/N106D/P107A
T7 chain: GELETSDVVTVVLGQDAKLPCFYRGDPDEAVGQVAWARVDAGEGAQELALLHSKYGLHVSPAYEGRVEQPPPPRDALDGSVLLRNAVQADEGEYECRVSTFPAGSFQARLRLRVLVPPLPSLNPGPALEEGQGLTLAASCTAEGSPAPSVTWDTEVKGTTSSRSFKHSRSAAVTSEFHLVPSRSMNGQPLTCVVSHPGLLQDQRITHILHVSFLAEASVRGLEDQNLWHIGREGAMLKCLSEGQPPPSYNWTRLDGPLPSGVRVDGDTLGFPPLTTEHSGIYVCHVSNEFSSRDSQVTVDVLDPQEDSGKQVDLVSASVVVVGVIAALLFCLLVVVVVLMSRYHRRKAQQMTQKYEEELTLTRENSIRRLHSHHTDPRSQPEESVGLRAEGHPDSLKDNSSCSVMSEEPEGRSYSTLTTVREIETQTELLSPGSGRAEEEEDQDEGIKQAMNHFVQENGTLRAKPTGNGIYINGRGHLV

[6] = molecular target: T8, monomeric huNectin4-his-BirA protein (human, UniProt Q96NY8 32-349); assay: SPR (Biacore T200), antibody captured on Protein A, monomeric huNectin4-his-BirA injected
T8 construct: also called Human Nectin4-His-BirA; huNectin4-BirA
T8 sequence: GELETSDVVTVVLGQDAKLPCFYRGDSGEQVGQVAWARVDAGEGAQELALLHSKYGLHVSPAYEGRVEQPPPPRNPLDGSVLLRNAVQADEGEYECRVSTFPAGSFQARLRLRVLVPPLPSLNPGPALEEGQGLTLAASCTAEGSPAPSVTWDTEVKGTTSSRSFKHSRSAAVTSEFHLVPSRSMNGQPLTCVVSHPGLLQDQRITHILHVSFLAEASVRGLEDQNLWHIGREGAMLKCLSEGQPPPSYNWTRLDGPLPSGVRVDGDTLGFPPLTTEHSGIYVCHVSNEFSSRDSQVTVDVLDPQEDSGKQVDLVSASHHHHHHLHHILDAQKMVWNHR
Description: Antibodies were tested for binding affinity to the wild-type human Nectin-4 protein by SPR (Surface Plasmon Resonance) methods. Measurements were performed on a Biacore T200 apparatus (Biacore GE Healthcare) at 25° C. Sensorgrams were analyzed with Biacore T100 Evaluation software. A CMR Sensor Chip with immobilized Protein A at about 600 RU was used. Anti-Nectin-4 antibodies were captured onto the Protein-A chip (antibodies diluted to 1 μg/ml in HBS-EP+1× buffer and injected over 120s at 40 μL/min). […] The chip was regenerated with NaOh 10 mM 2× for 30s at 40 μl/min. The sensorgram sets were fitted using the 1:1 kinetic binding model or two state reaction model, as a function of the profile of the curves.

B1: antibody 6C11B (antibody, human IgG1, V domains shown)
VH: EVQLQQSGPELVKPGASVKISCKTSGYTFTEYTIHWVKQNHGKSLEWIGRINPKNGDIIHNQNFMGKATLTVDKSSSTAYMELRSLTSEDSAVCYCARSGYGSSYGFAYWGQGTLVTVSA
VL: DIVMTQSPTSLVVSLGQRATISCRASQSVTTPRYSYMHWYQQKPGQPPKLLIKYASNLESGVPARFSGSGSGTDFTLNIHPVEEEDTATYYCQHSWEIPYTFGGGTKLEIK
notes: also called 6CB11; CHG1-M-4N4-6C11B
[1]
  binding result: no binding
Human PVR on CHO cells
  binding result: no binding
[2]
  binding result: binds
[3]
  binding result: no binding
Human Nectin-4 Mutant 3
  binding result: no binding
[4]
  binding result: binds

B2: antibody N41 (antibody, V domains shown)
VH: QVQLKQSGPGLVQPSQSLSITCTVSGFSLTNYGVHWVRQSPGKGLEWLGVIWSGGSTDYNAAFISRLSISKDTSKSQVFFKMNSLQADDTAIYYCARELIHAMDNWGQGTSVTVSS
VL: DIQMTQSPASLSVSVGETVTITCRASENIYSNLAWYQQKQGNSPQLLVFAATNLADGVPSRFSGSGSGTQYSLKINSLQSEDFGTYYCQHFWGTPTFGGGTKLEIK
notes: Comparator anti-Nectin-4 antibody
[5]
  binding result: no binding
Human Nectin-4 Mutant 1
  binding result: no binding
[6]
  Kd: 1.5 nM
  koff: 0.00087 s⁻¹
  kon: 580000 M⁻¹ s⁻¹
